In patent US10100129B2, “Antibodies against CD73 and uses thereof” (BRISTOL-MYERS SQUIBB COMPANY, priority 2014, dated 2018):

T1: CD32b (FcgRIIb) (Homo sapiens, UniProt P31994)
T1 sequence (P31994 43-310): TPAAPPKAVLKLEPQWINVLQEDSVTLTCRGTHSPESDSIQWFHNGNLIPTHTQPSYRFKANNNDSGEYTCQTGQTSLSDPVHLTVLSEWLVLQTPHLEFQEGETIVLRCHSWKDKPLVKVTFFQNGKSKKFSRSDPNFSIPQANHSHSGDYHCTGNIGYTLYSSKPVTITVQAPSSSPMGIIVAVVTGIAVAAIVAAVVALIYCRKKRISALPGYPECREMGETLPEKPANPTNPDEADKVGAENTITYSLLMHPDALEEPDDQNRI

T2: CD32a-H131 (FcgRIIa-H131) (Homo sapiens, UniProt P12318)
T2 sequence (P12318 34-217 limits assumed): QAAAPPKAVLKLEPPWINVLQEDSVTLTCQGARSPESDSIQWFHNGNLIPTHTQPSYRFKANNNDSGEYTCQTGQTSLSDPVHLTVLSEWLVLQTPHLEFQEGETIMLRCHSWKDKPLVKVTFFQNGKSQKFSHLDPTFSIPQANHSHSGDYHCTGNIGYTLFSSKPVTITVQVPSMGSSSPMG

T3: CD32a-R131 (FcgRIIa-R131) (Homo sapiens, UniProt P12318, H167R)
T3 sequence (P12318 34-217 H167R limits assumed): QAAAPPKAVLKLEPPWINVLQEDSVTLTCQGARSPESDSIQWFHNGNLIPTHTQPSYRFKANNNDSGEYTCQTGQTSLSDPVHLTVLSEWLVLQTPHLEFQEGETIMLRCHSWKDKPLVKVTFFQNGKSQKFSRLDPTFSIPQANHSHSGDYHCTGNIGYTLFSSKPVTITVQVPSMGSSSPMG


How the values were obtained:
[1] = molecular target: T1, CD32b (FcgRIIb); assay: SPR binding to FcgR-his: CD32b; settings: 1 μM antibody, anti-his Fab captured FcgR-his
Procedure: (§1) The binding of antibodies to Fc gamma receptors (FcγRs or FcgRs) was studied using biosensor technologies including Biacore surface plasmon resonance (SPR) and Fortebio Biolayer Interferometry (BLI). SPR studies were performed on a Biacore T100 instrument (GE Healthcare) at 25° C. The Fab fragment from a murine anti-6×His antibody was immobilized on a CM5 sensor chip using EDC/NHS to a density of ˜3000 RU. Various his-tagged FcgRs (7 ug/ml) were captured via the C-terminal his-tag using a contact time of 30 s at 10 ul/min, and the binding of 1.0 μM antibody was evaluated in a running buffer of 10 mM NaPO4, 130 mM NaCl, 0.05% p20 (PBS-T) pH 7.1. FcgRs used for these experiments included CD64 (FcgRI), CD32a-H131 (FcgRIIa-H131), CD32a-R131 (FcgRIIa-R131), CD32b (FcgRIIb), CD16a-V158 (FcgRIIIa-V158), CD16b-NA1 (FcgRIIIb-NA1), and CD16B-NA2 (FcgRIIIb-NA2). BLI experiments were performed on a Fortebio Octet RED instrument (Pall, Fortebio) at 25° C. in 10 mM NaPO4, 130 mM NaCl, 0.05% p20 (PBS-T) pH 7.1. Antibodies were captured out of undiluted expression supernatants on protein A coated sensors, followed by the binding of 1 μM hCD32a-H131, hCD32a-R131, hCD32b, hCD16a-V158, or 0.1 μM hCD64 analytes.

[2] = molecular target: CD16a-V158 (FcgRIIIa-V158) (Homo sapiens, UniProt P08637, F176V); assay: SPR binding to FcgR-his: CD16a-V158; settings: 1 μM antibody, anti-his Fab captured FcgR-his
CD16a-V158 (FcgRIIIa-V158), sequence (P08637 17-208 F176V limits assumed): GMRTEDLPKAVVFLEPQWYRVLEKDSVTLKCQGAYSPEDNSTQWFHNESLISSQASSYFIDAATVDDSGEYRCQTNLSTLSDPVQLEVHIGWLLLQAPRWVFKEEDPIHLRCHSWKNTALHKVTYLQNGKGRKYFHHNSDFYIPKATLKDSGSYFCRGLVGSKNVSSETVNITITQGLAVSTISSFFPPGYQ
Procedure: as §1

[3] = molecular target: CD16B-NA2 (FcgRIIIb-NA2) (Homo sapiens, UniProt O75015); assay: SPR binding to FcgR-his: CD16B-NA2; settings: 1 μM antibody, anti-his Fab captured FcgR-his
CD16B-NA2 (FcgRIIIb-NA2), sequence (O75015 17-200 limits assumed): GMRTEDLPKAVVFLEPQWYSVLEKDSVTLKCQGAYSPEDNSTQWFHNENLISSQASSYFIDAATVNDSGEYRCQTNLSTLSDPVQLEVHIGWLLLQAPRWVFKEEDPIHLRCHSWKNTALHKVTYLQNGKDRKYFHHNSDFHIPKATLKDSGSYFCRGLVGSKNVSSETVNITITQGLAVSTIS
Procedure: as §1

[4] = molecular target: T2, CD32a-H131 (FcgRIIa-H131); assay: SPR binding to FcgR-his: CD32a-H131; settings: 1 μM antibody, anti-his Fab captured FcgR-his
Procedure: as §1

[5] = molecular target: CD64 (FcgRI) (Homo sapiens, UniProt P12314); assay: SPR binding of 1.0 μM antibody to anti-his Fab captured FcgR-his: CD64
CD64 (FcgRI), sequence (P12314 16-374): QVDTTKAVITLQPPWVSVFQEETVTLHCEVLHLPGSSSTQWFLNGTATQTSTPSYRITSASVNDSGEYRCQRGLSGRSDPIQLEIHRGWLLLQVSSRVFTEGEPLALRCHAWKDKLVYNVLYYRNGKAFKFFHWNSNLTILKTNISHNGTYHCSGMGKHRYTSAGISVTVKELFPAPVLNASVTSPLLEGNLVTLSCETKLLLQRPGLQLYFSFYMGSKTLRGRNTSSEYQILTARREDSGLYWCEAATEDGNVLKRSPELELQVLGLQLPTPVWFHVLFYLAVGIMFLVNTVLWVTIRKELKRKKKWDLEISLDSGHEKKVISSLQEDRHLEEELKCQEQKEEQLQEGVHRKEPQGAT
Procedure: as §1

[6] = molecular target: T3, CD32a-R131 (FcgRIIa-R131); assay: SPR binding to FcgR-his: CD32a-R131; settings: 1 μM antibody, anti-his Fab captured FcgR-his
Procedure: as §1

% Rmax, binding to hCD32b [1] | % Rmax, binding to hCD16a-V158 [2] | % Rmax, binding to hCD16B-NA2 [3] | % Rmax, binding to hCD32a-H131 [4] | % Rmax, binding to hCD64 [5] | % Rmax, binding to hCD32a-R131 [6] | Molecule
5% | 1% | 0% | 44% | 2% | 17% | mAb11-IgG2.3 (protein, left off: another chain or arm of the molecule) constant: ASTKGPSVFPLAPCSRSTSESTAALGCLVKDYFPEPVTVSWNSGALTSGVHTFPAVLQSSGLYSLSSVVTVPSSNFGTQTYTCNVDHKPSNTKVDKTVERKSCVECPPCPAPPVAGPSVFLFPPKPKDTLMISRTPEVTCVVVDVSHEDPEVQFNWYVDGVEVHNAKTKPREEQFNSTFRVVSVLTVVHQDWLNGKEYKCKVSNKGLPAPIEKTISKTKGQPREPQVYTLPPSREEMTKNQVSLTCLVKGFYPSDIAVEWESNGQPENNYKTTPPMLDSDGSFFLYSKLTVDKSRWQQGNVFSCSVMHEALHNHYTQKSLSLSPGK
3% | 1% | 0% | 66% | 3% | 14% | mAb6-IgG2.3 (protein, left off: another chain or arm of the molecule) constant: ASTKGPSVFPLAPCSRSTSESTAALGCLVKDYFPEPVTVSWNSGALTSGVHTFPAVLQSSGLYSLSSVVTVPSSNFGTQTYTCNVDHKPSNTKVDKTVERKSCVECPPCPAPPVAGPSVFLFPPKPKDTLMISRTPEVTCVVVDVSHEDPEVQFNWYVDGVEVHNAKTKPREEQFNSTFRVVSVLTVVHQDWLNGKEYKCKVSNKGLPAPIEKTISKTKGQPREPQVYTLPPSREEMTKNQVSLTCLVKGFYPSDIAVEWESNGQPENNYKTTPPMLDSDGSFFLYSKLTVDKSRWQQGNVFSCSVMHEALHNHYTQKSLSLSPGK
1% | 1% | 0% |  | 1% | 5% | mAb10-IgG2.5 (protein, left off: another chain or arm of the molecule; small tags and cut ends) constant: ASTKGPSVFPLAPSSRSTSESTAALGCLVKDYFPEPVTVSWNSGALTSGVHTFPAVLQSSGLYSLSSVVTVPSSNFGTQTYTCNVDHKPSNTKVDKTVERKCCVECPPCPAPPVAGPSVFLFPPKPKDTLMISRTPEVTCVVVDVSHEDPEVQFNWYVDGVEVHNAKTKPREEQFNSTFRVVSVLTVVHQDWLNGKEYKCKVSNKGLPAPIEKTISKTKGQPREPQVYTLPPSREEMTKNQVSLTCLVKGFYPSDIAVEWESNGQPENNYKTTPPMLDSDGSFFLYSKLTVDKSRWQQGNVFSCSVMHEALHNHYTQKSLSLSPGK
4% | 3% | 0% | 100% | 6% | 30% | mAb5-IgG2.3 (protein, left off: another chain or arm of the molecule; small tags and cut ends) constant: ASTKGPSVFPLAPCSRSTSESTAALGCLVKDYFPEPVTVSWNSGALTSGVHTFPAVLQSSGLYSLSSVVTVPSSNFGTQTYTCNVDHKPSNTKVDKTVERKSCVECPPCPAPPVAGPSVFLFPPKPKDTLMISRTPEVTCVVVDVSHEDPEVQFNWYVDGVEVHNAKTKPREEQFNSTFRVVSVLTVVHQDWLNGKEYKCKVSNKGLPAPIEKTISKTKGQPREPQVYTLPPSREEMTKNQVSLTCLVKGFYPSDIAVEWESNGQPENNYKTTPPMLDSDGSFFLYSKLTVDKSRWQQGNVFSCSVMHEALHNHYTQKSLSLSPGK
1% | 1% | 0% | 39% | 1% | 6% | mAb4-IgG2.3 (protein, left off: another chain or arm of the molecule; small tags and cut ends) constant: ASTKGPSVFPLAPCSRSTSESTAALGCLVKDYFPEPVTVSWNSGALTSGVHTFPAVLQSSGLYSLSSVVTVPSSNFGTQTYTCNVDHKPSNTKVDKTVERKSCVECPPCPAPPVAGPSVFLFPPKPKDTLMISRTPEVTCVVVDVSHEDPEVQFNWYVDGVEVHNAKTKPREEQFNSTFRVVSVLTVVHQDWLNGKEYKCKVSNKGLPAPIEKTISKTKGQPREPQVYTLPPSREEMTKNQVSLTCLVKGFYPSDIAVEWESNGQPENNYKTTPPMLDSDGSFFLYSKLTVDKSRWQQGNVFSCSVMHEALHNHYTQKSLSLSPGK
1% | 1% | 0% |  | 1% | 6% | mAb12-IgG2.5 (protein, left off: another chain or arm of the molecule) constant: ASTKGPSVFPLAPSSRSTSESTAALGCLVKDYFPEPVTVSWNSGALTSGVHTFPAVLQSSGLYSLSSVVTVPSSNFGTQTYTCNVDHKPSNTKVDKTVERKCCVECPPCPAPPVAGPSVFLFPPKPKDTLMISRTPEVTCVVVDVSHEDPEVQFNWYVDGVEVHNAKTKPREEQFNSTFRVVSVLTVVHQDWLNGKEYKCKVSNKGLPAPIEKTISKTKGQPREPQVYTLPPSREEMTKNQVSLTCLVKGFYPSDIAVEWESNGQPENNYKTTPPMLDSDGSFFLYSKLTVDKSRWQQGNVFSCSVMHEALHNHYTQKSLSLSPGK
67% |  | 7% | 67% | 78% | 80% | mAb8-IgG2.3G1-AY-V27 (protein, left off: another chain or arm of the molecule) constant: ASTKGPSVFPLAPCSRSTSESTAALGCLVKDYFPEPVTVSWNSGALTSGVHTFPAVLQSSGLYSLSSVVTVPSSNFGTQTYTCNVDHKPSNTKVDKTVERKSCVECPPCPAPELLGGPSVFLFPPKPKDTLMISRTPEVTCVVVDVEHEDPEVKFNWYVDGVEVHNAKTKPREEQYNSTYRVVSVLTVLHQDWLNGKEYKCKVSNKALPAPIEKTISKAKGQPREPQVYTLPPSREEMTKNQVSLTCLVKGFYPSDIAVEWESNGQPENNYKTTPPVLDSDGSFFLYSKLTVDKSRWQQGNVFSCSVMHEALHNHYTQKSLSLSPGK
40% | 12% | 3% |  | 69% | 57% | mAb10-IgG2.3G1-AY-V27 (protein, left off: another chain or arm of the molecule) constant: ASTKGPSVFPLAPCSRSTSESTAALGCLVKDYFPEPVTVSWNSGALTSGVHTFPAVLQSSGLYSLSSVVTVPSSNFGTQTYTCNVDHKPSNTKVDKTVERKSCVECPPCPAPELLGGPSVFLFPPKPKDTLMISRTPEVTCVVVDVEHEDPEVKFNWYVDGVEVHNAKTKPREEQYNSTYRVVSVLTVLHQDWLNGKEYKCKVSNKALPAPIEKTISKAKGQPREPQVYTLPPSREEMTKNQVSLTCLVKGFYPSDIAVEWESNGQPENNYKTTPPVLDSDGSFFLYSKLTVDKSRWQQGNVFSCSVMHEALHNHYTQKSLSLSPGK
